Eight molecules from patent US12600782 (BIOTHEUS, dated 2026) can be followed below.

The target in assay [1] is human PD-L1 protein (purchased from AcroBiosystems) (human) (UniProt Q9NZQ7). The assay can be described thus: BLI (ForteBio), antibody on AHQ sensor, 100 nM PD-L1 antigen, 1:1 model. (In general: In BLI a coated tip is dipped into the sample, and binding shifts an interference pattern.)
For assay [2] the target is unchanged. Described as above. The source holds these as a separate data set.
The target in assay [3] is human PD-L1 on CHO cells (CHO-hPD-L1 cells) (human) (UniProt Q9NZQ7). The assay can be described thus: flow cytometry on CHO-hPD-L1 cells, PE anti-human IgG-Fc, MFI; table under the plot, unit from the concentration axis. (A flow cytometer gives signals particle by particle.)
Sequence of human PD-L1 on CHO cells (CHO-hPD-L1 cells) (human) (Q9NZQ7 19-290): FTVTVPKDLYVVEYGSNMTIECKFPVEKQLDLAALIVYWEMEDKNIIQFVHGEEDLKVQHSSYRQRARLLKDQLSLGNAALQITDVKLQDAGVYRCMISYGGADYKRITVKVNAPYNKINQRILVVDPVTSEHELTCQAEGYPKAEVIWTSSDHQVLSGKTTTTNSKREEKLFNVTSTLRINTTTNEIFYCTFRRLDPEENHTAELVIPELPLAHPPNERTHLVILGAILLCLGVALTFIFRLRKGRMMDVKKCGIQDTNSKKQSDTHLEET
The target in assay [4] is human PD-L1 protein (purchased from AcroBiosystems) (human) (UniProt Q9NZQ7). The assay can be described thus: flow cytometry blocking assay: antibody pre-incubated with biotinylated human PD-L1 protein (1 ug/ml), binding of PD-L1 to CHO-hPD-1 cells read as MFI; falling curve, the table under the plot calls the half-maximal concentration EC50; unit from the concentration axis.

Assay [5] has as its target T1, human PD-L2 protein (purchased from AcroBiosystems) (human, UniProt Q9BQ51 20-219, limits assumed, biotinylated in the blocking assays).
T1 construct: Bought soluble protein; also called PD-L2 antigen; biotinylated human PD-L2 protein
T1 sequence (looked up): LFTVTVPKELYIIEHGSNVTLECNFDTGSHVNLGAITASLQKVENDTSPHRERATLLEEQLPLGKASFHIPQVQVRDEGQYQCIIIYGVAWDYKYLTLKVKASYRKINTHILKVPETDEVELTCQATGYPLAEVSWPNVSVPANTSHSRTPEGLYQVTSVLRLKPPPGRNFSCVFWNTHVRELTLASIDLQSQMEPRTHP
The assay can be described thus: BLI (ForteBio), antibody on AHQ sensor, 100 nM PD-L2 antigen, 1:1 model. As to the method: (§1) ForteBio affinity determination was carried out according to existing methods (Estep, P et al., High throughput solution-based measurement of antibody-antigen affinity and epitope binning. MAbs, 2013.5(2): p. 270-8). In short, the sensor was equilibrated for 30 min under the line of the analysis buffer, and then the baseline was established after online detection for 60 s. The purified antibody obtained as described above was loaded onto the AhQ sensor online. […] Kinetic analysis was performed using a 1:1 binding model.
(§2) The experimental method was the same as that in Example 1.5.

The target of assay [6] is T2, human PD-L2 on CHO cells (CHO-hPD-L2 cells) (human, UniProt Q9BQ51 20-273).
T2 construct: whole, on cells; also called CHO-K1-PD-L1/PD-L2
T2 sequence (looked up): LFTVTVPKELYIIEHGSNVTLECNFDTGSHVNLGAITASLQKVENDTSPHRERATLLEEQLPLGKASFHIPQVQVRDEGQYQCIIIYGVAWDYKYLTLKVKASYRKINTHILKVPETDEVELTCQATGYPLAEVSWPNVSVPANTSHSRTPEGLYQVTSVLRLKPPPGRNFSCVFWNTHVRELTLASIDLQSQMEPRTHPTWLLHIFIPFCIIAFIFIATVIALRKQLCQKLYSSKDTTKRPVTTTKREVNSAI
The assay can be described thus: flow cytometry on CHO-hPD-L2 cells, PE anti-human IgG-Fc, median fluorescence intensity (MFI). As to the method: (§3) The expanded CHO-hPD-L2 cells were adjusted to a cell density of 2×10⁶ cells/ml, and were added to 96-well flow plate at 100 μl/well, and centrifuged for later use. […] The diluted samples were added to the 96-well flow plate with cells at 100 μl/well, incubated at 4° C. for 30 min, and washed twice with PBS. Goat F(ab')2 anti-human IgG-Fc (PE) (purchased from Abcam) diluted 100 times with PBS was added at 100 μl/well, incubated at 4° C. for 30 min, and washed twice with PBS. PBS was added at 100 μl/well to resuspend cells, and detection was performed on a CytoFlex (Bechman) flow cytometer and the corresponding MFI was calculated.

Assay [7] addresses T1, human PD-L2 protein (purchased from …). Description: flow cytometry blocking assay: antibody pre-incubated with biotinylated human PD-L2 protein (1 ug/ml), binding of PD-L2 to CHO-hPD-1 cells read as MFI (APC). As to the method: (§4) CHO cells overexpressing human PD-1 (CHO-hPD-1 cells) were generated by transfection of the pCHO1.0 vector (purchased from Invitrogen™) cloning human PD-1 cDNA (purchased from Sino Biological). The expanded CHO-hPD-1 cells were adjusted to a cell density of 2×10⁶ cells/ml, and were added to 96-well flow plate at 100 μl/well, and centrifuged for later use. The purified mutant sample was diluted with PBS and diluted 3 times from […] for 12 points. […] The co-incubation sample was added to the above-mentioned 96-well flow plate with cells 100 μl/well, incubated at 4° C. for 30 min, and washed twice with PBS. APC goat anti-mouse IgG (minimum×reactive) antibody diluted 100 times with PBS (purchased from Biolegend®) was added at 100 μl/well, incubated at 4° C. for 30 min, and washed twice with PBS. PBS was added at 100 μl/well to resuspend cells, and detection was performed on a CytoFlex (Bechman) flow cytometer and the corresponding MFI was calculated.

Assay [8] addresses T3, human PD-L1 protein (purchased from AcroBiosystems) (human, UniProt Q9NZQ7 19-238, biotinylated in the blocking assay).
T3 construct: Bought soluble protein; also called PD-L1 antigen; biotinylated human PD-L1 protein
Description: BLI (ForteBio), antibody on AHQ sensor, 100 nM PD-L1 antigen, 1:1 model. On the procedure:
as §1

Assay [9] has as its target T1, human PD-L2 protein (purchased from …). The assay can be described thus: BLI (ForteBio), antibody on AHQ sensor, 100 nM PD-L2 antigen, 1:1 model. On the procedure:
as §1
This is another data set of the same source.

Assay [10] has as its target T4, human PD-L1 on CHO cells (CHO-hPD-L1 cells) (human, UniProt Q9NZQ7 19-290).
T4 construct: whole, on cells; also called CHO-K1-PD-L1/PD-L2
Description: flow cytometry on CHO-hPD-L1 cells, PE anti-human IgG-Fc, MFI; table under the plot, unit from the concentration axis.

For assay [11], the target named is T2, human PD-L2 on CHO cells (CHO-hPD-L2 …). The assay can be described thus: flow cytometry on CHO-hPD-L2 cells, PE anti-human IgG-Fc, MFI; table under the plot, unit from the concentration axis.
Assay [12] concerns the target T3, human PD-L1 protein (purchased from …). The assay can be described thus: flow cytometry blocking assay: antibody pre-incubated with biotinylated human PD-L1 protein (1 ug/ml), binding of PD-L1 to CHO-hPD-1 cells read as MFI; falling curve, the table under the plot calls the half-maximal concentration EC50; unit from the concentration axis. As to the method: (§5) The expanded CHO-hPD-1 cells were adjusted to a cell density of 2 ×10^6 cells/ml, and were added to 96-well flow plate at 100 μl/well, and centrifuged for later use. The purified mutant sample was diluted with PBS and diluted 3 times from […] for 12 points.
(§6) 28 purified sample at 4° C. for 30 min. The co-incubation sample was added to the above-mentioned 96-well flow plate with cells at 100 μl/well, incubated at 4° C. for 30 min, and washed twice with PBS. APC goat anti-mouse IgG (minimum×reactivity) antibody diluted 100 times with PBS (purchased from Biolegend®) was added at 100 μl/well, incubated at 4° C. for 30 min, and washed twice with PBS. PBS was added at 100 μl/well to resuspend cells, and detection was performed on a CytoFlex (Bechman) flow cytometer and the corresponding MFI was calculated.

The target in assay [13] is T1, human PD-L2 protein (purchased from …). Description: flow cytometry blocking assay: antibody pre-incubated with biotinylated human PD-L2 protein (1 ug/ml), binding of PD-L2 to CHO-hPD-1 cells read as MFI (APC); falling curve, the table under the plot calls the half-maximal concentration EC50; unit from the concentration axis. On the procedure:
as §5, §6

In assay [14] the target is T2, human PD-L2 on CHO cells (CHO-hPD-L2 …). The assay can be described thus: flow cytometry on CHO-hPD-L2 cells, PE anti-human IgG-Fc, median fluorescence intensity (MFI). As to the method: as §3
The source holds these as a separate data set.

Assay [15] deals with T1, human PD-L2 protein (purchased from …). Description: flow cytometry blocking assay: antibody pre-incubated with biotinylated human PD-L2 protein (1 ug/ml), binding of PD-L2 to CHO-hPD-1 cells read as MFI. On the procedure: as §4
Assay [16] deals with T4, human PD-L1 on CHO cells (CHO-hPD-L1 …). The assay can be described thus: flow cytometry on CHO-hPD-L1 cells, PE anti-human IgG-Fc, median fluorescence intensity (MFI).
Assay [17] concerns the target T3, human PD-L1 protein (purchased from …). Description: BLI (ForteBio), antibody on AHQ sensor, 100 nM PD-L1 antigen, 1:1 model. On the procedure: as §1, §2
This is another data set of the same source.

Substitutions are numbered along the chain they refer to. Like-named read-outs stand apart in the source and are kept apart here.

T3 sequence (Q9NZQ7 19-238 limits assumed): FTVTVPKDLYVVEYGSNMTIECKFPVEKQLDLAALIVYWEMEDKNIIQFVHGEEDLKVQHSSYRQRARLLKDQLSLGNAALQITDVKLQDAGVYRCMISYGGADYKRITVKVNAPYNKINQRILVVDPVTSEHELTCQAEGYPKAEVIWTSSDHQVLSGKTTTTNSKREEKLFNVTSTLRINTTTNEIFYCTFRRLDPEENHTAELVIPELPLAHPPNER
Sequence of human PD-L1 protein (purchased from AcroBiosystems) (human) (Q9NZQ7 19-238 limits assumed): as above
T4 sequence (Q9NZQ7 19-290): as the sequence (Q9NZQ7 19-290) above

What is called Kd is the equilibrium constant for the complex coming apart. Lower therefore signals tighter binding. Broadly, the EC50 is the concentration at which the effect is half-maximal. Read a high EC50 as lower potency in that assay. Consider control antibody ATE, for which the Kd in assay [1] amounted to 1.3 nM; in [2], 1.16 nM. Moreover, the results for the concentration giving a half-maximal response (EC50) in assay [3] and in assay [4] were 4.53 nM and 6.31 nM, respectively.

B1: HZ-D-Na-96-3 (antibody, V domains shown)
VH: EVQLVESGGGLVQPGGSLRLSCAASGRTFSSMTIGWFRQAPGKEREFVSGIGWTSGLTVYADSVKGRFTISRDNAKNSMYLQMNSLKPEDTAVYYCAADSMNRGQFDYWGQGTLVTVSS
notes: Humanized anti-PD-L2 heavy chain antibody: VHH linked to human IgG1 (LALA) Fc; the junction is not described
The koff is the rate constant with which the complex falls apart. A high value points to a short-lived complex. By kon is commonly meant the second-order rate constant of association. A high value points to faster complex formation. By EC50 (read off the curve) is commonly meant the concentration that produces a half-maximal response. A high value points to weaker potency. With B1, in assay [5], the Kd is 1.99 nM, the koff is 0.00059 s⁻¹ and the kon stood at 297000 M⁻¹ s⁻¹. Moreover, in assay [6], the “EC50 (read off the curve)” value is ~3 nM. Moreover, the “IC50 (read off the curve)” value in assay [7] is ~2 nM.

B2: Bi-203-204 (bispecific antibody, human IgG1, kappa, L234A L235A, V domains shown)
V domain 1: QVQLVESGGGLVKPGGSLRLSCAASGHTFIIYAIGWFRQAPGKGLEFVATINWSGSMTNYADSVKGRFTISRDNAKNTVYLQMNSLKPDDTAVYYCAAYVGATISTAHSRYDYWGQGTLVTVSS
V domain 2: B1 VH with E44G, R45L, K87R, P88A
notes: Formula III + IV format
In the case of B2, the dissociation constant Kd in assay [8] amounted to 1.59 nM; in assay [9], 1.14 nM. Moreover, the results for the dissociation rate constant (koff) in assay [8] and in assay [9] were 0.000405 s⁻¹ and 0.000424 s⁻¹, respectively. The on-rate constant (kon) in [8] was 254000 M⁻¹ s⁻¹; in assay [9] it was 372000 M⁻¹ s⁻¹. Further, the EC50 was found to be 3.74 nM in assay [10], 1.25 nM in assay [11], 12.3 nM in [12] and 8.35 nM in assay [13].

B3: HZ-D-Na-96-2 (antibody, V domains shown)
VH: B1 VH with E44G, R45L, M79L
notes: as for B1
Consider B3, for which, in assay [5], the Kd amounted to 1.58 nM, the koff was 0.000512 s⁻¹ and the kon was determined as 323000 M⁻¹ s⁻¹. The “IC50 (read off the curve)” value in assay [7] is ~2 nM.

B4: D-Na-96 (antibody, V domains shown)
VH: QVQLVESGGGLVQAGASLRLSCAASGRTFSSMTIGWFRQTPGKEREFVAGIGWTSGLTVYADSVKGRFTISRDNAEKTMYLHMNNLKPEDTSVYYCAADSMNRGQFDYWGQGTQVTVSS
notes: Anti-PD-L2 heavy chain antibody: VHH linked to human IgG1 (LALA) Fc; the junction is not described
As to B4, the figures for the equilibrium dissociation constant (Kd) in [5] and in [9] were 2.5 nM and 1.27 nM, respectively. Besides, the results for the koff in assay [5] and in [9] were 0.000655 s⁻¹ and 0.0011 s⁻¹, respectively. Also, the association rate constant (kon) in assay [5] was 262000 M⁻¹ s⁻¹; in assay [9] it was 862000 M⁻¹ s⁻¹. For the same molecule, the “EC50 (read off the curve)” value is ~50 nM in [14] and ~6 nM in assay [6]. The “IC50 (read off the curve)” value in assay [15] is ~9 nM; in assay [7], ~2 nM.

B5: HZ-D-Na-96-1 (antibody, V domains shown)
VH: B1 VH with E44G, R45L, K87R, P88A
notes: as for B1
As for B5, the dissociation constant Kd in assay [5] came to 1.68 nM; in assay [9] it was 1.11 nM. Also, the figures for the koff in [5] and in [9] were 0.000577 s⁻¹ and 0.0004 s⁻¹, respectively. Moreover, the kon in [5] came to 344000 M⁻¹ s⁻¹; in assay [9], 360000 M⁻¹ s⁻¹. The “EC50 (read off the curve)” value in assay [6] was ~4 nM. Also, the EC50 in [11] came out at 1.75 nM; in assay [13], 13.4 nM. Also, the “IC50 (read off the curve)” value in assay [7] is ~2 nM.

B6: K-Yr-13&14-02 (antibody, V domains shown)
VH: B2 V domain 1 with P14A, G16D, G44E, L45R, A61T, V93I, L119Q
notes: Anti-PD-L1 heavy chain antibody: VHH linked to human IgG1 (LALA) Fc; the junction is not described
B6: in assay [8], the dissociation constant Kd came to 0.96 nM, the koff came out at 0.000561 s⁻¹ and the association rate constant (kon) was 585000 M⁻¹ s⁻¹. Moreover, the “EC50 (read off the curve)” value in [16] was ~8 nM.

B7: HZ-K-Yr-13&14-02-3 (antibody, V domains shown)
VH: B2 V domain 1
notes: Humanized anti-PD-L1 heavy chain antibody: VHH linked to human IgG1 (LALA) Fc; the junction is not described; also called HZ-K-13&14-02-3
For the molecule B7, in assay [17], binding was put at a Kd of 0.223 nM, the off-rate (koff) amounted to 9.92e-05 s⁻¹ and the kon was determined as 445000 M⁻¹ s⁻¹. Moreover, in assay [8], the Kd came to 1.38 nM, the koff came out at 0.000309 s⁻¹ and the kon was determined as 224000 M⁻¹ s⁻¹. The 50% effective concentration (EC50 (read off the curve)) in assay [16] is ~10 nM. Further, the EC50 in assay [10] came to 2.55 nM. In assay [12], this molecule came in with an EC50 of 5.17 nM.
